What was measured:
[1] = Plasma kinetics after intravenous administration to rats; format: in vivo; conditions: for Plasma levels (as % of the dose): i.v. 50 μmol total Gd/kg, ICP-AES
Description: Plasma Kinetics of the Compounds 2e and 4e After Intravenous Administration to Rats
The title substances from Examples 2e and 4e, and for comparison the title substance from Example 1 of EP 0 836 485, were administered intravenously to rats in a dose of 50 μmol of total gadolinium/kg of body weight. Blood samples were then taken through a catheter in the common carotid artery at various times (1, 3, 5, 10, 15, 30, 60, 90, 120, 240, 360 min, and 24 h p.i.), and the metal content was determined by atomic emission spectroscopy (ICP-AES) and converted into plasma levels using a conversion factor (0.625). The kinetic data were calculated (software: WinNonlin) from the plasma concentrations (Tab. 1, 2).

[2] = rats, cited from earlier work
[3] = rats; cited from earlier work
[4] = intravenous, 50 μmol of total gadolinium/kg, calculated with WinNonlin from plasma concentrations

## CC(C(=O)NCC(=O)NCCCC[C@H](NC(=O)CNC(=O)C(C)N1CCN(CC(=O)O)CCN(CC(=O)O)CCN(CC(=O)O)CC1)C(=O)NCCCC[C@H](NC(=O)[C@H](CCCCNC(=O)CNC(=O)C(C)N1CCN(CC(=O)O)CCN(CC(=O)O)CCN(CC(=O)O)CC1)NC(=O)CNC(=O)C(C)N1CCN(CC(=O)O)CCN(CC(=O)O)CCN(CC(=O)O)CC1)C(=O)NCCN(CCNC(=O)[C@H](CCCCNC(=O)[C@H](CCCCNC(=O)CNC(=O)C(C)N1CCN(CC(=O)O)CCN(CC(=O)O)CCN(CC(=O)O)CC1)NC(=O)CNC(=O)C(C)N1CCN(CC(=O)O)CCN(CC(=O)O)CCN(CC(=O)O)CC1)NC(=O)[C@H](CCCCNC(=O)CNC(=O)C(C)N1CCN(CC(=O)O)CCN(CC(=O)O)CCN(CC(=O)O)CC1)NC(=O)CNC(=O)C(C)N1CCN(CC(=O)O)CCN(CC(=O)O)CCN(CC(=O)O)CC1)C(=O)c1cc(C(=O)N(CCNC(=O)[C@H](CCCCNC(=O)[C@H](CCCCNC(=O)CNC(=O)C(C)N2CCN(CC(=O)O)CCN(CC(=O)O)CCN(CC(=O)O)CC2)NC(=O)CNC(=O)C(C)N2CCN(CC(=O)O)CCN(CC(=O)O)CCN(CC(=O)O)CC2)NC(=O)[C@H](CCCCNC(=O)CNC(=O)C(C)N2CCN(CC(=O)O)CCN(CC(=O)O)CCN(CC(=O)O)CC2)NC(=O)CNC(=O)C(C)N2CCN(CC(=O)O)CCN(CC(=O)O)CCN(CC(=O)O)CC2)CCNC(=O)[C@H](CCCCNC(=O)[C@H](CCCCNC(=O)CNC(=O)C(C)N2CCN(CC(=O)O)CCN(CC(=O)O)CCN(CC(=O)O)CC2)NC(=O)CNC(=O)C(C)N2CCN(CC(=O)O)CCN(CC(=O)O)CCN(CC(=O)O)CC2)NC(=O)[C@H](CCCCNC(=O)CNC(=O)C(C)N2CCN(CC(=O)O)CCN(CC(=O)O)CCN(CC(=O)O)CC2)NC(=O)CNC(=O)C(C)N2CCN(CC(=O)O)CCN(CC(=O)O)CCN(CC(=O)O)CC2)cc(C(=O)N(CCNC(=O)[C@H](CCCCNC(=O)[C@H](CCCCNC(=O)CNC(=O)C(C)N2CCN(CC(=O)O)CCN(CC(=O)O)CCN(CC(=O)O)CC2)NC(=O)CNC(=O)C(C)N2CCN(CC(=O)O)CCN(CC(=O)O)CCN(CC(=O)O)CC2)NC(=O)[C@H](CCCCNC(=O)CNC(=O)C(C)N2CCN(CC(=O)O)CCN(CC(=O)O)CCN(CC(=O)O)CC2)NC(=O)CNC(=O)C(C)N2CCN(CC(=O)O)CCN(CC(=O)O)CCN(CC(=O)O)CC2)CCNC(=O)[C@H](CCCCNC(=O)[C@H](CCCCNC(=O)CNC(=O)C(C)N2CCN(CC(=O)O)CCN(CC(=O)O)CCN(CC(=O)O)CC2)NC(=O)CNC(=O)C(C)N2CCN(CC(=O)O)CCN(CC(=O)O)CCN(CC(=O)O)CC2)NC(=O)[C@H](CCCCNC(=O)CNC(=O)C(C)N2CCN(CC(=O)O)CCN(CC(=O)O)CCN(CC(=O)O)CC2)NC(=O)CNC(=O)C(C)N2CCN(CC(=O)O)CCN(CC(=O)O)CCN(CC(=O)O)CC2)c1)N1CCN(CC(=O)O)CCN(CC(=O)O)CCN(CC(=O)O)CC1 (stereo partly drawn) [Example No. 1 from EP 0 836 485]
[1]; 1 min p.i.
  Plasma levels (as % of the dose): 75.0%
[1]; 3 min p.i.
  Plasma levels (as % of the dose): 39.2%
[1]; 5 min p.i.
  Plasma levels (as % of the dose): 25.0%
[1]; 10 min p.i.
  Plasma levels (as % of the dose): 6.9%
[1]; 15 min p.i.
  Plasma levels (as % of the dose): 4.0%
[1]; 30 min p.i.
  Plasma levels (as % of the dose): 1.5%
[1]; 60 min p.i.
  Plasma levels (as % of the dose): 1.0%
[1]; 90 min p.i.
  Plasma levels (as % of the dose): 0.9%
[1]; 120 min p.i.
  Plasma levels (as % of the dose): 0.7%
[1]; 240 min p.i.
  Plasma levels (as % of the dose): 0.4%
[1]; 360 min p.i.
  Plasma levels (as % of the dose): 0.4%
[1]; 1440 min p.i.
  Plasma levels (as % of the dose): 0.0%

## Octa-Gd complex amide from the Gd complex of 10-(4-carboxy-1-methyl-2-oxo-3-azabutyl)-1,4,7,10-tetraazacyclododecane-1,4,7-triacetic acid with dendritic octaamine 4d [Example 4e]
[1]; 1 min p.i.
  Plasma levels (as % of the dose): 65.9%
[1]; 3 min p.i.
  Plasma levels (as % of the dose): 44.2%
[1]; 5 min p.i.
  Plasma levels (as % of the dose): 30.0%
[1]; 10 min p.i.
  Plasma levels (as % of the dose): 17.5%
[1]; 15 min p.i.
  Plasma levels (as % of the dose): 13.5%
[1]; 30 min p.i.
  Plasma levels (as % of the dose): 8.3%
[1]; 60 min p.i.
  Plasma levels (as % of the dose): 4.5%
[1]; 90 min p.i.
  Plasma levels (as % of the dose): 2.7%
[1]; 120 min p.i.
  Plasma levels (as % of the dose): 1.6%
[1]; 240 min p.i.
  Plasma levels (as % of the dose): 0.3%
[1]; 360 min p.i.
  Plasma levels (as % of the dose): 0.0%
[1]; 1440 min p.i.
  Plasma levels (as % of the dose): 0.0%
[1]; [4]
  Half-life α phase: 3.3 min
  Half-life β phase: 42.0 min
  Volume of distribution Vd ss: 0.20 L/kg

## albumin-GdDTPA
[2]; 24 hours after intravenous injection
  accumulation in liver tissue: ~30 % of the dose
[2]; in 24 hours
  dose eliminated: 20 % of the dose

## polylysine-GdDTPA
[3]
  excretion behaviour: excreted unchanged by glomerular filtration via the kidney
